{
  "source": "paper PMC9931213",
  "about": "“Structural basis for ATG9A recruitment to the ULK1 complex in mitophagy initiation” (Science Advances, 2023)",
  "binders": {"B1": {"name": "MBP-ATG9A (692–839), monomeric (domain or fragment, human, UniProt Q7Z3C6 692-839, looked up)", "chain": "QLQSLVLSEYASTEMSLHALYMHQLHKQQAQAEPERHVWHRRESDESGESAPDEGGEGARAPQSIPRSASYPCAAPRPGAPETTALHGGFQRRYGGITDPGTVPRVPSHFSRLPLGGWAEDGQSASRHPEPVPEEGSEDELPPQVHKV", "notes": "source: HEK GnTi- cells, transfected, purified (amylose resin, Superose 6); not shown: MBP, N-terminal, kept"}, "B2": {"name": "ATG9A HDIR (828–839)–GSDEA–ATG101 (1–198) fusion construct (other, human)", "chain": "SEDELPPQVHKVGSDEAMNCRSEVLEVSVEGRQVEEAMLAVLHTVLLHRSTGKFHYKKEGTYSIGTVGTQDVDCDFIDFTYVRVSSEELDRALRKVVGEFKDALRNSGGDGLGQMSLEFYQKKKSRWPFSDECIPWEVWTVKVHVVALATEQERQICREKVGEKLCEKIINIVEVMNRHEYLPKMPTQSEVDNVFDTGLRDVQPYLYKISFQITD", "notes": "flexible linker of five residues; ATG101, human, residues 1-198; also called ATG9A HDIR-ATG101 fusion construct; not shown: GST, N-terminal, cleaved"}, "B3": {"name": "ATG13^HORMA (1–197):TwinStrep-Flag (TSF)–ATG101 complex (complex, human)", "chain 1": "METDLNSQDRKDLDKFIKFFALKTVQVIVQARLGEKICTRSSSSPTGSDWFNLAIKDIPEVTHEAKKALAGQLPAVGRSMCVEISLKTSEGDSMELEIWCLEMNEKCDKEIKVSYTVYNRLSLLLKSLLAITRVTPAYRLSRKQGHEYVILYRIYFGEVQLSGLGEGFQTVRVGTVGTPVGTITLSCAYRINLAFMS", "chain 2": "MNCRSEVLEVSVEGRQVEEAMLAVLHTVLLHRSTGKFHYKKEGTYSIGTVGTQDVDCDFIDFTYVRVSSEELDRALRKVVGEFKDALRNSGGDGLGQMSLEFYQKKKSRWPFSDECIPWEVWTVKVHVVALATEQERQICREKVGEKLCEKIINIVEVMNRHEYLPKMPTQSEVDNVFDTGLRDVQPYLYKISFQITDALGTSVTTTMRRLIKDTLAL", "notes": "ATG101, human; Heterodimer of two HORMA domains formed beforehand by co-expression; also called ATG13^HORMA:ATG101; source: HEK GnTi- cells, transfected, purified (Strep-Tactin resin, Superdex 200); not shown: TwinStrep-Flag (TSF), N-terminal, kept"}, "B4": {"name": "ATG13^HORMA (1–197), no tag (domain or fragment, human, UniProt O75143 1-197, looked up)", "chain": "B3 chain 1"}},
  "details_in_all_cases": "both partners purified",
  "key": {"[1]": {"target": "B3", "assay": "pull-down; recombinant MBP-ATG9A constructs (1.2 μM) on amylose resin with TSF-ATG101:ATG13 (1–197) complex (3 μM), 4°C overnight, ITC buffer (25 mM Hepes pH 7.5, 150 mM NaCl, 1 mM MgCl2, 1 mM TCEP); full-length MBP-ATG9A in DDM/CHS micelles (0.05% DDM/CHS); SDS-PAGE"}, "[2]": {"target": "B4", "assay": "crystal structure; ATG9 HDIR (828–839)–fused ATG101 (1–198):ATG13 (1–197) complex, 6 mg/ml; sitting drop, 288 K, 0.1 M Hepes pH 7.5, 0.2 M NaCl, 12% PEG8000; 2.4 Å"}, "[3]": {"target": "T1, MBP-ATG9A (full-length autophagy-related protein 9A) (human, UniProt Q7Z3C6 1-839)", "T1 construct": "In detergent (DDM/CHS) micelles; also called wild-type MBP-ATG9A; ATG9A wild type (WT); source: HEK GnTi- cells, transfected; not shown: MBP, N-terminal, kept", "T1 sequence (looked up)": "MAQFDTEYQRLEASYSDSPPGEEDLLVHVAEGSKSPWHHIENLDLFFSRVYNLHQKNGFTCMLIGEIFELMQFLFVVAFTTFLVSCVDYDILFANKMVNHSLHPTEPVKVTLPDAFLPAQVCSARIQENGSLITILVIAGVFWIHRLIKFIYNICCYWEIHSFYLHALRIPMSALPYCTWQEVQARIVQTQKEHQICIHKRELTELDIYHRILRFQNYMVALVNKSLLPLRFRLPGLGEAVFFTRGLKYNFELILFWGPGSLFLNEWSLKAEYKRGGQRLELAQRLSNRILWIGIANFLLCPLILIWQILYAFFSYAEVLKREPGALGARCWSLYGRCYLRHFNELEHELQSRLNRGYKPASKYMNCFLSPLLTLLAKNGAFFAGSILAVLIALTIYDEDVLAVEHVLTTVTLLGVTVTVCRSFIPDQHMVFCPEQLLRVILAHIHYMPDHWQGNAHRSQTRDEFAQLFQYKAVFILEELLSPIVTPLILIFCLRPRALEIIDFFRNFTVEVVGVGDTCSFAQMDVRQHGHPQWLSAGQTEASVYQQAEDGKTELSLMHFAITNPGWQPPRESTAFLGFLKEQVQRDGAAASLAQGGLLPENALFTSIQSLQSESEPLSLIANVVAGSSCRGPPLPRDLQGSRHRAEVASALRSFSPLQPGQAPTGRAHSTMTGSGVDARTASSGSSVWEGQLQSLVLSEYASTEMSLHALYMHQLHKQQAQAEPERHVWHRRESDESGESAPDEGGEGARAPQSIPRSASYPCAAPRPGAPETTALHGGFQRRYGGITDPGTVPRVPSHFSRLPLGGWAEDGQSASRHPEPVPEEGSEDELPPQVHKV", "assay": "pull-down; recombinant MBP-ATG9A constructs (1.2 μM) on amylose resin with TSF-ATG101:ATG13 (1–197) complex (3 μM), 4°C overnight, ITC buffer (25 mM Hepes pH 7.5, 150 mM NaCl, 1 mM MgCl2, 1 mM TCEP); full-length MBP-ATG9A in DDM/CHS micelles (0.05% DDM/CHS); SDS-PAGE"}, "[4]": {"target": "T2, ATG101 (1–198) as in the crystallised fusion (human, UniProt Q9BSB4 1-198)", "T2 construct": "ATG101, human, residues 1-198; written on its own for the pairs that touch; also called ATG101 HORMA domain; source: HEK 293GnTi cells, as the C-terminal part of the fusion m32", "T2 sequence (looked up)": "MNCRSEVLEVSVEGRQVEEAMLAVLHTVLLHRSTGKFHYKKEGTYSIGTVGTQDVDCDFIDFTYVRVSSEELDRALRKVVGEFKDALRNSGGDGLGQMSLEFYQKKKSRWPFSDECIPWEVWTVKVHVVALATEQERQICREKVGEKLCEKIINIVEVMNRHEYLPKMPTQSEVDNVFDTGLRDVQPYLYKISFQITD", "assay": "crystal structure; ATG9 HDIR (828–839)–fused ATG101 (1–198):ATG13 (1–197) complex, 6 mg/ml; sitting drop, 288 K, 0.1 M Hepes pH 7.5, 0.2 M NaCl, 12% PEG8000; 2.4 Å"}},
  "data": [
    {"binder": "B1", "values": [
      {"measurement": "binding result", "setting": "[1]", "value": "binds"}
    ]},
    {"binder": "B2", "values": [
      {"measurement": "binding result", "setting": "[2]", "value": "binds"}
    ]},
    {"binder": "B3", "values": [
      {"measurement": "binding result", "setting": "[3]", "value": "binds"}
    ]},
    {"binder": "B4", "values": [
      {"measurement": "binding result", "setting": "[4]", "value": "binds"}
    ]}
  ]
}
